Target: FcRn (human) (UniProt P55899)
Experiment: Biacore; pH 6.0

koff | Ka | Kd | Substance
0.125 s⁻¹ |  |  | IgG1/2 N434S/T307N
0.0965 s⁻¹ |  |  | IgG1/2 N434S/R255P
0.0416 s⁻¹ | 5.92e+06 M⁻¹ | 0.169 µM | IgG1/2 M428L/N434S
0.087 s⁻¹ |  |  | IgG1/2 N434S/T307F
0.142 s⁻¹ |  |  | IgG1/2 N434S/K338H
0.122 s⁻¹ |  |  | IgG1/2 N434S/Q438F
0.285 s⁻¹ |  |  | IgG1/2 N434S/S426F
0.0832 s⁻¹ | 3.07e+06 M⁻¹ | 0.326 µM | IgG1/2 N434S/V309W
0.107 s⁻¹ |  |  | IgG1/2 N434S/T307H
0.148 s⁻¹ |  |  | IgG1/2 N434S/N286I
0.113 s⁻¹ |  |  | IgG1/2 N434S/Q438N
0.121 s⁻¹ |  |  | IgG1/2 N434S/H433G
0.119 s⁻¹ |  |  | IgG1/2 N434S/Q438W
 | 1.46e+06 M⁻¹ | 0.683 µM | IgG1 Y436V
0.213 s⁻¹ |  |  | IgG1/2 N434S/R255E
0.116 s⁻¹ |  |  | IgG1/2 N434S/V284D
0.818 s⁻¹ |  |  | IgG1/2 N434S/I253M
0.0627 s⁻¹ |  |  | IgG1/2 N434S/T307W
 | 5.14e+06 M⁻¹ | 0.194 µM | IgG1/2 N434S/Y436I
0.179 s⁻¹ |  |  | IgG1/2 N434S/A378G
0.107 s⁻¹ |  |  | IgG1/2 N434S/R255L
0.134 s⁻¹ |  |  | IgG1/2 N434S/S426H

koff | Ka | Kd | Substance
0.0702 s⁻¹ |  |  | IgG1/2 N434S/T307E
0.0702 s⁻¹ |  |  | IgG1/2 N434S/T307P
0.272 s⁻¹ |  |  | IgG1/2 N434S/N286K
0.164 s⁻¹ |  |  | IgG1/2 N434S/K288L
0.154 s⁻¹ |  |  | IgG1/2 N434S/K288W
0.107 s⁻¹ |  |  | IgG1/2 N434S/R255W
 | 1.43e+06 M⁻¹ | 0.699 µM | IgG1/2 Y436I
0.173 s⁻¹ |  |  | IgG1/2 N434S/S426L
 |  | 1.18 µM | IgG1/2_WT
0.158 s⁻¹ |  |  | IgG1/2 N434S/K288F
 | 3.15e+06 M⁻¹ | 0.317 µM | IgG1/2 Y436W
 | 5.77e+06 M⁻¹ | 0.173 µM | IgG1/2 Q311V/N434S
0.17 s⁻¹ |  |  | IgG1/2 N434S/K288I
0.117 s⁻¹ |  |  | IgG1/2 N434S/H285D
0.193 s⁻¹ |  |  | IgG1/2 N434S/T307R
0.221 s⁻¹ |  |  | IgG1/2 N434S/D312K
0.359 s⁻¹ |  |  | IgG1/2 N434S/V309D
0.329 s⁻¹ |  |  | IgG1/2 N434S/V309R
0.0749 s⁻¹ |  |  | IgG1/2 N434S/T307D
0.168 s⁻¹ |  |  | IgG1/2 N434S/V309F
0.189 s⁻¹ |  |  | IgG1/2 N434S/R255H
0.189 s⁻¹ |  |  | IgG1/2 N434S/R255G

koff | Ka | Kd | Substance
0.118 s⁻¹ |  |  | IgG1/2 N434S/Y436F
0.0818 s⁻¹ |  |  | IgG1/2 N434S/T307G
0.149 s⁻¹ |  |  | IgG1/2 N434S/N286H
0.12 s⁻¹ |  |  | IgG1/2 N434S/N286F
0.0902 s⁻¹ |  |  | IgG1/2 N434S/A378S
0.106 s⁻¹ |  |  | IgG1/2 N434S/Q438S
0.103 s⁻¹ |  |  | IgG1/2 N434S/N286Y
0.129 s⁻¹ |  |  | IgG1/2 N434S/V309Y
0.137 s⁻¹ |  |  | IgG1/2 N434S/T307L
 | 1.71e+06 M⁻¹ | 0.583 µM | IgG1 N434S
0.186 s⁻¹ |  |  | IgG1/2 N434S/R255Q
0.0847 s⁻¹ |  |  | IgG1/2 N434S/T307Y
0.275 s⁻¹ |  |  | IgG1/2 N434S/S426W
0.169 s⁻¹ |  |  | IgG1/2 N434S/R255S
0.176 s⁻¹ |  |  | IgG1/2 N434S/K248Y
 | 723000 M⁻¹ | 1.38 µM | IgG1/2 N434S/Y436K
 | 131000 M⁻¹ | 7.66 µM | IgG1/2 WT
0.142 s⁻¹ |  |  | IgG1/2 N434S/D249G
0.124 s⁻¹ |  |  | IgG1/2 N434S/N286G
0.22 s⁻¹ |  |  | IgG1/2 N434S/S426Y
0.147 s⁻¹ |  |  | IgG1/2 N434S/K288N
 | 3.56e+06 M⁻¹ | 0.281 µM | IgG1/2 N434S/Y436V

koff | Ka | Kd | Substance
0.162 s⁻¹ |  |  | IgG1/2 N434S/K288Q
0.211 s⁻¹ |  |  | IgG1/2 N434S/T307K
0.364 s⁻¹ |  |  | IgG1/2 N434S/V309H
0.163 s⁻¹ |  |  | IgG1/2 N434S/D312Y
0.104 s⁻¹ |  |  | IgG1/2 N434S/Q438I
0.16 s⁻¹ |  |  | IgG1/2 N434S/V309P
0.617 s⁻¹ |  |  | IgG1/2 N434S/V309K
 | 532000 M⁻¹ | 1.88 µM | IgG1/2 N434S/Y436H
0.231 s⁻¹ |  |  | IgG1/2 N434S/D312R
0.0991 s⁻¹ | 2.36e+06 M⁻¹ | 0.423 µM | IgG1/2 N434S/N286D
 | 1.65e+06 M⁻¹ | 0.605 µM | IgG1/2 N434S/Y436L
0.227 s⁻¹ |  |  | IgG1/2 N434S/V309Q
0.094 s⁻¹ | 2.69e+06 M⁻¹ | 0.372 µM | IgG1/2 N434S/N286L
0.136 s⁻¹ |  |  | IgG1/2 N434S/R255F
0.0653 s⁻¹ |  |  | IgG1/2 N434S/T307M
0.111 s⁻¹ |  |  | IgG1/2 N434S/T307I
 | 4.64e+06 M⁻¹ | 0.215 µM | IgG1/2 Q311M/N434S
0.121 s⁻¹ |  |  | IgG1/2 N434S/K288H
0.162 s⁻¹ |  |  | IgG1/2 N434S/K288Y
0.164 s⁻¹ |  |  | IgG1/2 N434S/Q438H
0.139 s⁻¹ |  |  | IgG1/2 N434S/Q438Y
0.0988 s⁻¹ | 2.5e+06 M⁻¹ | 0.4 µM | IgG1/2 N434S/N286R

koff | Ka | Kd | Substance
0.0981 s⁻¹ | 2.75e+06 M⁻¹ | 0.363 µM | IgG1/2 N434S/V284E
0.092 s⁻¹ |  |  | IgG1/2 N434S/T307V
 | 4.34e+06 M⁻¹ | 0.231 µM | IgG1/2 Q311L/N434S
0.0943 s⁻¹ | 2.57e+06 M⁻¹ | 0.39 µM | IgG1/2 N434S/R255I
0.146 s⁻¹ |  |  | IgG1/2 N434S/Q438G
0.98 s⁻¹ |  |  | IgG1/2 N434S/I253V
0.141 s⁻¹ |  |  | IgG1/2 N434S/K338R
0.122 s⁻¹ |  |  | IgG1/2 N434S/N286P
0.153 s⁻¹ |  |  | IgG1/2 N434S/M428V
0.13 s⁻¹ |  |  | IgG1/2 N434S/V309I
0.117 s⁻¹ |  |  | IgG1/2 N434S/M428I
 | 2.91e+06 M⁻¹ | 0.344 µM | IgG1/2 N434S/Y436W
0.104 s⁻¹ |  |  | IgG1/2 N434S/Q438D
0.149 s⁻¹ |  |  | IgG1/2 N434S/S426M
0.143 s⁻¹ |  |  | IgG1/2 N434S/N286V
0.0867 s⁻¹ | 2.23e+06 M⁻¹ | 0.448 µM | IgG1/2 N434S/S426I
 | 1.42e+06 M⁻¹ | 0.706 µM | IgG1 Y436W
0.138 s⁻¹ |  |  | IgG1/2 N434S/V309E
0.137 s⁻¹ |  |  | IgG1/2 N434S/V309L
